Data reported in paper PMC12219675 (Nature Communications, 2025).

Biological target: the molecule itself
Assay: thioflavin T fluorescence

B1: G175S PMEL CAF domain (residues 148-223) (domain or fragment)
chain: SFVYVWKTWGQYWQVLGGPVSGLSIGTSRAMLGTHTMEVTVYHRRGSRSYVPLAHSSSAFTITDQVPFSVSVSQLR
  polymerisation (ThT fluorescence) relative to the wild type: ~4 fold
